1 molecule from article PMC4657047, “Structure of the Human Factor VIII C2 Domain in Complex with the 3E6 Inhibitory Antibody” (Scientific Reports, 2015) can be followed below.

The experiment has as its target T1, human blood coagulation factor VIII C2 domain (human, UniProt P00451).
T1 construct: C2 domain of human blood coagulation factor VIII; pET15b with N-terminal His6 tag and a thrombin cleavage site; also called fVIII C2 domain
The experiment can be described thus: crystal structure; C2 domain/3E6 FAB binary complex formed at 37 °C for 30 minutes with 1.5-fold molar excess of C2 domain, separated on Superdex 75; crystals from 10 mM MES (pH 6.4-6.8), 20% (w/v) PEG 8000; two complexes in the asymmetric unit; 2.61 Å. To be noted: both partners purified.

T1 sequence (P00451 2190-2351): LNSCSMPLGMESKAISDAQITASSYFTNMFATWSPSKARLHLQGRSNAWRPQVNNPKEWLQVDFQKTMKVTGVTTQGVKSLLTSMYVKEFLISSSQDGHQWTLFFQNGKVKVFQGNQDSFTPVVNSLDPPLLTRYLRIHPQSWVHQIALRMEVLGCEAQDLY

B1: 3E6 antigen-binding fragment (FAB) of the classical anti-fVIII C2 domain inhibitory antibody 3E6 (Fab, V domains shown)
VH: QIQLVQSGPELKKPGKTVKISCKASDYTFTDYSLHWVKQAPGKGLKWMGWINTETGDPAYADDFKGRFAFSLETSVRTAYLQINNLKNEDTAIYFCAREDDGLASWGQGTTLTVSS
VL: QIVLTQSPAIMSASPGEKVTMTCSASSTVSYMYWYQQKPGSSPRFLISDTSNLASGVPVRFSGSGSGTSYSLTISRIEAEDAATYYCQHWSSYPLTFGGGTKLELK
notes: heavy chain of the 3E6 FAB is chain A (complex 1) and chain E (complex 2) of PDB 4XZU; light chain of the 3E6 FAB is chain B (complex 1) and chain F (complex 2) of PDB 4XZU; Fab made by papain cleavage of the murine monoclonal IgG; complex 1 (chains A, B) is the more complete model; also called 3E6 FAB; 3E6 antibody
On to B1, for which the binding result is on record as “binds”.
